According to patent US20160271230A1 (UNIVERSITY HEALTH NETWORK, published 2016):
No end group written: not given here.

Experiments:
[1] = biological target: T1, Neogenin (full-length, 180 kDa) (chick, UniProt Q90610 1-1443); test: cell-based or functional assay
T1 construct: Endogenous Neogenin of chick brain membranes, retinal axons and tecta, or Neogenin transfected into HEK293 cells; in Western blots it stood denatured
T1 sequence: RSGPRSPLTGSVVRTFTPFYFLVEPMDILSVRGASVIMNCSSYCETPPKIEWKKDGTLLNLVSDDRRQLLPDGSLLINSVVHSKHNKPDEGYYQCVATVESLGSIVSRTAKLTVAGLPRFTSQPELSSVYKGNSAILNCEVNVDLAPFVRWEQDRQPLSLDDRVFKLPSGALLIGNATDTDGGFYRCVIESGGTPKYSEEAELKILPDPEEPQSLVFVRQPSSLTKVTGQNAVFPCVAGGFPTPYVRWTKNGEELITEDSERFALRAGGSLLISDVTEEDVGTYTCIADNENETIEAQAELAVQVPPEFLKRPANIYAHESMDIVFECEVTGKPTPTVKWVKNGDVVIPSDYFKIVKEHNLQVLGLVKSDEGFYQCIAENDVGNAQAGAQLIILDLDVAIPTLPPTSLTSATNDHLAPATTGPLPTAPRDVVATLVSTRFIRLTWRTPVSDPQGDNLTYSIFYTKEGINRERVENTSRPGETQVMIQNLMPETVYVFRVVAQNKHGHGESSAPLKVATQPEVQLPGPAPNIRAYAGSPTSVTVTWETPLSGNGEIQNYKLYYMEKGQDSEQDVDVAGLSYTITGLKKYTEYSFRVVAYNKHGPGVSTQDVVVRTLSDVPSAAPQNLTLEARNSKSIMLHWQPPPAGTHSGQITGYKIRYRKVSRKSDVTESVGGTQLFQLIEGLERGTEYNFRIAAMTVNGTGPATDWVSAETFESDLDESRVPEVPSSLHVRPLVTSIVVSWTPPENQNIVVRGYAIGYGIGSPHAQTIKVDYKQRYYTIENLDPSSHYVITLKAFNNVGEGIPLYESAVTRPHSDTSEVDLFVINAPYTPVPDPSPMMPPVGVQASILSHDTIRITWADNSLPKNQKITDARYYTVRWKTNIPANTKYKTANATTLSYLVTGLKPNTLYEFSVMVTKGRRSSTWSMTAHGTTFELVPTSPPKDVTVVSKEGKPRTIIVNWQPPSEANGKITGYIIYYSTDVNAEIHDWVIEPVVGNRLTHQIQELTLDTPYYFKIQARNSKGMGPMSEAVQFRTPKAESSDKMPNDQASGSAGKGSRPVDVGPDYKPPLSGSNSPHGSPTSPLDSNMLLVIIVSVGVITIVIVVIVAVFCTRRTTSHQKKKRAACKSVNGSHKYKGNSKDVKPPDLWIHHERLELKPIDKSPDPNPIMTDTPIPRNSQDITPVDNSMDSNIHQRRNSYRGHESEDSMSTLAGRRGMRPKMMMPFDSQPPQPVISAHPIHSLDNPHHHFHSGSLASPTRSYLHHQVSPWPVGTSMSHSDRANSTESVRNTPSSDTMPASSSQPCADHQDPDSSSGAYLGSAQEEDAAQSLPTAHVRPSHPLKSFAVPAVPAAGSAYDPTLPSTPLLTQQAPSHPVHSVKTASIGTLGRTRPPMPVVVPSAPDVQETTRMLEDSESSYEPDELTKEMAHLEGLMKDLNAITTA

[2] = biological target: T2, 6FNIII-domain of Neogenin fused to alkaline phosphatase (Gallus gallus, UniProt Q90610 429-1036); test: binding assay, 4Ig-AP and 6FNIII-AP on wells coated with RGMa proteins (FIG. 9B)
T2 construct: also called 6FNIII-AP; fibronectin domain; not shown: alkaline phosphatase (AP)
T2 sequence: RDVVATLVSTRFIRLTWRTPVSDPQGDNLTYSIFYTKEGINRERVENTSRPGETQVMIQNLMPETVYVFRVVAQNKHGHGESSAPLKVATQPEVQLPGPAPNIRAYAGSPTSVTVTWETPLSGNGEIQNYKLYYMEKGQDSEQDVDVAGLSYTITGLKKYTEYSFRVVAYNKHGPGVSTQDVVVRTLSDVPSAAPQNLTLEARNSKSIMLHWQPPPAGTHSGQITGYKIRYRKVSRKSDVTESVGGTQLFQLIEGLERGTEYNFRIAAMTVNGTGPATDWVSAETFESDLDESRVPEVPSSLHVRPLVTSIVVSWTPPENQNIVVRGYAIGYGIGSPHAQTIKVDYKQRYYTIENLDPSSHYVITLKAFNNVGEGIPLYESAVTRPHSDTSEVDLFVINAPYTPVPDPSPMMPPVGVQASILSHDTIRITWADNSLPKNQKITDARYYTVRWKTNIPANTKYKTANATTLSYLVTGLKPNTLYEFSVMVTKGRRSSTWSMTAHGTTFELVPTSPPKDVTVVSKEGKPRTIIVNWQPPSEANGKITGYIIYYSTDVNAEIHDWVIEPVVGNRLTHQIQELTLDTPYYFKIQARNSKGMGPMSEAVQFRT

[3] = biological target: T3, 4Ig-domain of Neogenin fused to alkaline phosphatase (Gallus gallus, UniProt Q90610 1-383); test: ELISA with AP fusions of Neogenin domains
T3 construct: also called 4Ig-AP; not shown: alkaline phosphatase (AP)
T3 sequence: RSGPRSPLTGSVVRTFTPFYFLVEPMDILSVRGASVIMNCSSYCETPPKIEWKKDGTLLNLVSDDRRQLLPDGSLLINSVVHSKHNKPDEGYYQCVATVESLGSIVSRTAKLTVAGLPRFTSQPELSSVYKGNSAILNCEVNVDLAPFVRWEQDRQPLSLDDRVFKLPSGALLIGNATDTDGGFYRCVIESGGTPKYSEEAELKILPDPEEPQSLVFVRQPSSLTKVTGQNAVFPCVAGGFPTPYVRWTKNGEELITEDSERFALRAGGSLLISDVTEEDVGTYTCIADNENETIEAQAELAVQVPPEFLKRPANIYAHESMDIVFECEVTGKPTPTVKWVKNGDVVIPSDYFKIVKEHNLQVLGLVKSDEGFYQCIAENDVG

[4] = biological target: T4, His-tagged 4Ig-domain of Neogenin (Gallus gallus, UniProt Q90610 1-383); test: plate binding assay, AP-tagged fragments on coated His-tagged Neogenin proteins (FIG. 17C)
T4 construct: Secreted from transfected cells, purified on Ni-NTA; also called His-4Ig; Neogenin-4Ig; not shown: 6-His tag at the N-terminus; myc and 6-His tags of the pSectag 2B vector at the C-terminus
T4 sequence: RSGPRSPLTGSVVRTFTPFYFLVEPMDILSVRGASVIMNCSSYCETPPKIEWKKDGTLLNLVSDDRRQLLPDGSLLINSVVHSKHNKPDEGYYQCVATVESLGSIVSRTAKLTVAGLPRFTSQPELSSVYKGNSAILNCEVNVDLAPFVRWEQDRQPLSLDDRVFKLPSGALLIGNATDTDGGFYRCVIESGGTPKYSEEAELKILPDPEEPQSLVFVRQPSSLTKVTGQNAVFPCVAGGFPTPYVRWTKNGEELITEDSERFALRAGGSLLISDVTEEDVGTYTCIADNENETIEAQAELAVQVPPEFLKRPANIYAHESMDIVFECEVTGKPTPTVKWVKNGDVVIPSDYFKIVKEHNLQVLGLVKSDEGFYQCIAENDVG
Description: (§1) Using a 96-well microtiter plate (Corning Incorporated), wells were coated with 100 μl (10 μg/mL) of Poly-L-Lysine at 4° C. overnight. Wells were then washed three times with 100 μl of PBST (+0.02% Tween). 50 μl (2.5 μg/mL) of His-tagged: Full-length Neogenin; 4 Ig Neogenin; and FNIII Neogenin were coated onto each well for 1 hour at 37° C. Following three washes of 100 μl PBST, each well was then blocked with 300 μl of 3% BSA in PBST for 1 hour at 37° C. 50 μl (1.0 μg/mL) AP-tagged: N-RGMa (28-73); N-RGMa (28-54); N-RGMa (40-62); N-RGMa (54-73); N-RGMa (54-62) in 1% BSA+PBST was then added to each well and incubated at 37° C. for 1 hour. Each well was washed thoroughly three times with 100 μl PBST followed by subsequent equilibration of each well with Alkaline Phosphatase (AP) developing buffer (100 mM NaHCO₃, 1 mM MgCl₂). The reaction was developed using AP developing buffer supplemented with, p-nitrophenyl phosphate (pNPP)(Sigma-Aldrich) and allowed to develop until color development. The reaction was stopped with the addition of 50 μl (0.1M) NaOH. The absorbance of each reaction was measured using a microplate autoreader (BIO-TEK Instruments Inc.) at […] wavelength. […]

[5] = biological target: T1, Neogenin (full-length, 180 kDa); test: told in a figure legend; assay not named there (peptide also used on beads in the pull-down of FIG. 2B)
[6] = biological target: T2, 6FNIII-domain of Neogenin fused to …; test: ELISA with AP fusions of Neogenin domains
[7] = biological target: T5, His-tagged 6FNIII-domain of Neogenin (Gallus gallus, UniProt Q90610 429-1036); test: complementary plate assay, RGMa peptides fused with AP on coated Neogenin domains (FIG. 9)
T5 construct: also called His-6FNIII; His-FNIII; not shown: His tag
T5 sequence: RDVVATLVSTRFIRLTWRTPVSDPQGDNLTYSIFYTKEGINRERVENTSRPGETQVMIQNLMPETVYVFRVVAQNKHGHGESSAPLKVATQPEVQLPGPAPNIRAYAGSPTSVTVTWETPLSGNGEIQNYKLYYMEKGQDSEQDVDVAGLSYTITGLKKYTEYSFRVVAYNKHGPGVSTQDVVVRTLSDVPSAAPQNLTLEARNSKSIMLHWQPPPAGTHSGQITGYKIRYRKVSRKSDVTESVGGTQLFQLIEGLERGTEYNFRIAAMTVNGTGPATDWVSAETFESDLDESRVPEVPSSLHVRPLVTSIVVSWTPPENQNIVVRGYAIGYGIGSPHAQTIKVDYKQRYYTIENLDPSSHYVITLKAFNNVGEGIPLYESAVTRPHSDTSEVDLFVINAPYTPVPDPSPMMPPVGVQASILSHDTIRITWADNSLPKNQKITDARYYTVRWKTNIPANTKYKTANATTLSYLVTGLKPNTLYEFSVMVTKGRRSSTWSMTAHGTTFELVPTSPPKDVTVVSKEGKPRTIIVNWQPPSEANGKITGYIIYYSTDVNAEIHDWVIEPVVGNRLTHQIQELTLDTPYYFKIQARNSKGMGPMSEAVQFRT
Description: (A) Different RGMa-AP proteins were incubated on wells coated with the 4Ig 6FNIII or BSA. […] Data were average±SEM (n=3 independent experiments), *p<0.005. (B) Quantification of a binding assay where 4Ig-AP and 6FNIII-AP proteins were assayed on wells coated with proteins from different RGMa regions. […] C-RGMa proteins and full length RGMa only bound 6FNIII. Data were average±SEM (n=3 independent experiments), *p<0.005. […] Quantification of a binding assay where N-RGMa-AP was assayed on wells coated with proteins DCC-4Ig and Neogenin-4Ig. In this experiment Neogenin-4Ig but not DCC-4Ig interacted with N-Raft-AP. Data were average±SEM (n=4 independent experiments), *p<0.005. (D) Cis-interaction between the 4Ig domain of Neogenin and N-Raft is required for localization of Neogenin in lipid rafts. HEK-293 cells were transfected with Neogenin and RGMa constructs. BMP2 (100 nM) was added to the medium 1 hour before cells were collected. Western blotting was performed following lipid raft fractionation. Flotillin was used as a marker for lipid raft fractions, whereas the transferrin receptor (TfR) was used as a marker for heavy membrane-fractions. Every experiment was repeated twice. […] In the first set of experiments, cells were only transfected with Neogenin. […]

[8] = biological target: T4, His-tagged 4Ig-domain of Neogenin; test: plate binding assay, AP-tagged fragment on coated His-tagged 4Ig-domain (FIG. 17C)
Description: as §1

## RGMa on the cell membrane (from UniProt Q8JG54 150-404) (ligand)
[1]
  intensity correlation quotient (co-localization in growth cones, immunofluorescence): 0.32

B1: N-inh peptide (amino acids 77-113 of RGMa), His-tagged (peptide)
peptide: GDLAYHSAVHGIDDLMVQHNCSKDGPTSQPRLRTLPP
notes: not shown: 6-His tag at the N-terminus; myc tag and 6-His tag at the C-terminus
[2]
  binding result: binds
[3]
  binding result: no binding

B2: N-RGMa (40-62aa), AP-tagged (peptide)
chain: WAATSGSHHLGAEETPEFCTALR
modifications: also: alkaline phosphatase tag, sequence and position not given here
notes: not shown: alkaline phosphatase tag of the Psectag2B-AP plasmid
[4]
  binding result: binds

B3: N-RGMa (54-73aa), AP-tagged (peptide)
chain: TPEFCTALRAYAHCTRRTAR
modifications: cysteine pairing not given here; also: alkaline phosphatase tag, sequence and position not given here
notes: also called N-RGMa (55-73aa); not shown: alkaline phosphatase tag of the Psectag2B-AP plasmid
[4]
  binding result: binds

B4: N-RGMa^50-99 control peptide (amino acid residues 50-99 of RGMa) (peptide)
peptide: GAEETPEFCTALRAYAHCTRRTARTCRGDLAYHSAVHGIDDLMVQHNCSK
notes: not shown: 6-His tag at the N-terminus
[5]
  binding result: no binding

B5: N-Raft peptide (amino acids 28-73 of RGMa), His-tagged (peptide)
peptide: SPCKILKCNSEFWAATSGSHHLGAEETPEFCTALRAYAHCTRRTAR
notes: also called N-RGMa^28-73; N-RGMa28-73; not shown: 6-His tag at the N-terminus
[6]
  binding result: no binding

B6: N-Raft fused with alkaline phosphatase (peptide)
chain: SPCKILKCNSEFWAATSGSHHLGAEETPEFCTALRAYAHCTRRTAR
modifications: cysteine pairing not given here; also: alkaline phosphatase tag, sequence and position not given here
notes: also called N-Raft-AP; N-RGMa-AP; not shown: alkaline phosphatase tag of the Psectag2B-AP plasmid
[7]
  binding result: no binding

B7: N-RGMa (28-54aa), AP-tagged (peptide)
chain: SPCKILKCNSEFWAATSGSHHLGAEET
modifications: cysteine pairing not given here; also: alkaline phosphatase tag, sequence and position not given here
notes: as for B2
[8]
  binding result: no binding (tested: 1.0 µg/mL)

B8: N-RGMa (54-62aa), AP-tagged (peptide)
chain: TPEFCTALR
modifications: also: alkaline phosphatase tag, sequence and position not given here
notes: as for B2
[8]
  binding result: no binding (tested: 1.0 µg/mL)
